Assay results: patent US12624112 (MABWELL SHANGHAI BIOSCIENCE, dated 2026)
Positions count from the first letter of the chain named.

T1: ST2 on the effector cells (KU812, KU812/NF-κB-1#, HUVEC, HMC-1) (human, UniProt Q01638 19-556)
T1 sequence (looked up): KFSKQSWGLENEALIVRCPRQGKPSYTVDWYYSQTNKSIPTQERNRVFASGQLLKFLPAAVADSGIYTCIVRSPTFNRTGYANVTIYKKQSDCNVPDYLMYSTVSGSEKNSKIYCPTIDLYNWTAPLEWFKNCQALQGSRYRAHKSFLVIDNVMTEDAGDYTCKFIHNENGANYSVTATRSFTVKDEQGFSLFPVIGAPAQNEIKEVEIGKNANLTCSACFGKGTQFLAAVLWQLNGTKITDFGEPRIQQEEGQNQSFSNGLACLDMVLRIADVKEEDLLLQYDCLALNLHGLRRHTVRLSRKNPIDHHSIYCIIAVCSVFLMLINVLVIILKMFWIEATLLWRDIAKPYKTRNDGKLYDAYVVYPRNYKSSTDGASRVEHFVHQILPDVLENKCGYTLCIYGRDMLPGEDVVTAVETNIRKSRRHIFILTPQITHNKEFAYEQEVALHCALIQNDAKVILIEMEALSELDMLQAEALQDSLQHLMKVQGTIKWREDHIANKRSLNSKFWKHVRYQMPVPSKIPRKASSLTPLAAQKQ

T2: Human ST2-his (human, UniProt Q01638-2 19-328, limits assumed)
T2 construct: Expressed in CHO-K1; The printed range starts at Met1; also called human ST2 fused with a 6-histidine tag at the C-terminus
T2 sequence: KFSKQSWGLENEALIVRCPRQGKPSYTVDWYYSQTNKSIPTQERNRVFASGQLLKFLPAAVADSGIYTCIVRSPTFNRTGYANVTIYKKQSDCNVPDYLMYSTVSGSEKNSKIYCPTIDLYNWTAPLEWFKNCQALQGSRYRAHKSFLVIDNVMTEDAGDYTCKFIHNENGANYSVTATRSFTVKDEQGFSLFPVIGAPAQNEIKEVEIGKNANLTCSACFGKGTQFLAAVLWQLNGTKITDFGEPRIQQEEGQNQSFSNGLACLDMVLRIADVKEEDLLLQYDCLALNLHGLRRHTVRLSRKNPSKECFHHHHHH

B1: 5886-156-H1L0 (antibody, human IgG4 S228P, kappa, V domains shown)
VH: QVQLQESGPGLVKPSQTLSLTCTVSGYSITSDYAWNWIRQPPGKGLEWIGYIDYSGSTTYNPSLKSRVTISRDTSKNQFSLKLSSVTAADTAVYYCASTVIDSMDYWGQGTLVTVSS
VL: DIVLTQSPASLAVSPGQRATITCRASKSVSTSGHSYMHWYQQKPGQPPKLLIYLASNLESGVPARFSGSGSGTDFTLTINPVEANDTANYYCQHSREFPFTFGQGTKVEIKR
notes: Humanized antibody expressed in CHO-K1, purified by protein A
B2: 5887-41-H1L0 (antibody, human IgG4 S228P, kappa, V domains shown)
VH: B1 VH with N36D, D53R, S57D, T59Y, S98T, V100M, I101M, S103T
VL: B1 VL with H34N, F100L, V108L
notes: Humanized antibody
B3: 5888-379-H2L1 (antibody, human IgG4 S228P, kappa, V domains shown)
VH: QVQLVQSGAEVKKPGASVKVSCKASGYTFINYGMNWVRQAPGQRLEWMGWINTYIGEPTYGDNFKGRVTITRDTSASTAYMELSSLRSEDTAVYYCAREGDAFAYWGQGTLVTVSS
VL: DIQMTQSPSSLSASVGDRVTITCKSSQSLLYSGNQNNYLAWYQQKPGKVPKLLIYGASTRESGVPSRFSGSGSGTDFTLTISSLQPEDLATYYCQNDHSYPYTFGGGTKVEIKR
notes: Humanized antibody
B4: 5888-116-H0L1 (antibody, human IgG4 S228P, kappa, V domains shown)
VH: QVQLVQSGAEVKKPGASVKVSCKASGYTFTDSEMYWVRQAPGQGLEWMGAIDPETGDTAFNQKFKGRVTMTRDTSTSTVYMELSSLRSEDTAVYYCARAFDNDNDDGFAYWGQGTMVTVSS
VL: DIQMTQSPSSLSASVGDRVTITCSASSSVNYMHWYQQKPGKAPKRLIYDTSKLASGVPSRFSGSGSGTDYTFTISSLQPEDAATYYCQQWSSNPLTFGQGTKLEIKR
notes: Humanized antibody

molecular target: T1, ST2 on the effector cells (KU812, …); experiment: cell-based or functional assay

Row | IC50, inhibition of HMC-1 IL8 production promoted by IL33 | Maximum inhibition rate, HMC-1 IL8 production by IL33 | Relative activity, HMC-1 IL8 production by IL33 | Binder
1 | 0.177 µg/mL | 81% | 56.9% | B1
2 | 0.123 µg/mL | 77.8% | 81.6% | B2
3 | 0.23 µg/mL | 90.2% | 43.8% | B3
4 | 0.00551 µg/mL | 90.6% | 1830% | B4

molecular target: T2, Human ST2-his; experiment: SPR Biacore X100, antibody captured on protein A chip, human ST2-his injected, dissociation at pH 5.5
Method: (§1) The experiment on the interaction between the anti-human ST2 antibodies and human ST2-his was performed using Biacore X100.
(§2) Each anti-human ST2 antibody was diluted to 2 µg/mL and captured on the surface of a protein A chip for a capture time of 60 s. Following the antibody capture, a solution of human ST2-his (2-fold gradient dilution from a starting concentration of 20 nM, to obtain 6 concentrations in total) was injected. Association was monitored for 180 s and dissociation was monitored for 700 s, and the sensor surface was regenerated by injecting a solution of glycine at pH 2.0. Kinetic data were analyzed using a simple 1:1 binding model.

Row | Kd | koff | kon | Binder
5 | 0.276 nM | 0.000279 s⁻¹ | 1.01e+06 M⁻¹ s⁻¹ | B1
6 | 0.161 nM | 0.0001 s⁻¹ | 622000 M⁻¹ s⁻¹ | B2
7 | 1.67 nM | 0.00575 s⁻¹ | 3.46e+06 M⁻¹ s⁻¹ | B3
8 | 0.474 nM | 0.0014 s⁻¹ | 2.95e+06 M⁻¹ s⁻¹ | B4

molecular target: Human ST2-fc (human) (UniProt Q01638); experiment: competition ELISA, coated ST2-fc, competitor IL33-his

Row | IC50 | Maximum inhibition rate | Relative activity compared with CNTO7160 | Binder
9 | 1.22 µg/mL | 89.2% | 103% | B1
10 | 0.58 µg/mL | 92.8% | 216% | B2
11 | 0.427 µg/mL | 84.8% | 206% | B3
12 | 0.0204 µg/mL | 94.1% | 5200% | B4

molecular target: T2, Human ST2-his; experiment: SPR Biacore X100, antibody captured on protein A chip, human ST2-his injected, pH 7.4
Method: as §1, §2

Row | Kd | koff | kon | Binder
13 | 0.275 nM | 0.000272 s⁻¹ | 990000 M⁻¹ s⁻¹ | B1
14 | 0.214 nM | 9.98e-05 s⁻¹ | 467000 M⁻¹ s⁻¹ | B2
15 | 0.495 nM | 0.000485 s⁻¹ | 979000 M⁻¹ s⁻¹ | B3
16 | 0.259 nM | 0.000464 s⁻¹ | 1.79e+06 M⁻¹ s⁻¹ | B4

molecular target: T1, ST2 on the effector cells (KU812, …); experiment: cell-based or functional assay; remark: another data set of the same source

Row | IC50, inhibition of HUVEC-IL6 production promoted by IL33 | Maximum inhibition rate, HUVEC-IL6 production by IL33 | Relative activity, HUVEC-IL6 production by IL33 | Binder
17 | 4.05 µg/mL | 87.9% | 67.3% | B1
18 | 1.31 µg/mL | 93.2% | 208% | B2
19 | 26.1 µg/mL | 71.6% | 10.4% | B3
20 | 0.832 µg/mL | 92.6% | 328% | B4

molecular target: T2, Human ST2-his; experiment: SPR Biacore X100, ratio of kd at pH 5.5 to kd at pH 7.4
Method: as §1, §2

Row | kd ratio of pH 5.5/pH 7.4 | Binder
21 | 1.03 | B1
22 | 1 | B2
23 | 11.9 | B3
24 | 3.02 | B4

molecular target: T1, ST2 on the effector cells (KU812, …); experiment: cell-based or functional assay; remark: another data set of the same source

Row | IC50, inhibition of KU812-IL5 production promoted by IL-33 (human IL33-his) | Maximum inhibition rate, KU812-IL5 production by IL-33 | Relative activity compared with CNTO7160, KU812-IL5 production by IL-33 | Binder
25 | 0.0354 µg/mL | 98.1% | 181% | B1
26 | 0.0699 µg/mL | 97.3% | 91.7% | B2
27 | 0.0839 µg/mL | 98% | 121% | B3
28 | 0.00929 µg/mL | 98.3% | 656% | B4

molecular target: T1, ST2 on the effector cells (KU812, …); experiment: cell-based or functional assay; remark: another data set of the same source

Row | IC50, inhibition of KU812-IL5 production promoted by reduced IL33 | Maximum inhibition rate, KU812-IL5 production by reduced IL33 | Relative activity, KU812-IL5 production by reduced IL33 | Binder
29 | 0.752 µg/mL | 93.4% | 195% | B1
30 | 0.706 µg/mL | 78.6% | 208% | B2
31 | 2.87 µg/mL | 96.7% | 51.1% | B3
32 | 0.124 µg/mL | 75.1% | 1180% | B4

molecular target: T1, ST2 on the effector cells (KU812, …); experiment: cell-based or functional assay; remark: another data set of the same source

Row | IC50, inhibition of activation of KU812-NF-κB reporter gene by IL33 | Maximum inhibition rate, KU812-NF-κB reporter gene | Relative activity compared with CNTO7160, KU812-NF-κB reporter gene | Binder
33 | 0.478 µg/mL | 92.5% | 41.9% | B1
34 | 0.0554 µg/mL | 89.2% | 362% | B2
35 | 0.013 µg/mL | 95.7% | 1540% | B4

molecular target: T1, ST2 on the effector cells (KU812, …); experiment: cell-based or functional assay; remark: another data set of the same source

Row | IC50, inhibition of KU812-IL5 production promoted by oxidized IL33 | Maximum inhibition rate, KU812-IL5 production by oxidized IL33 | Relative activity, KU812-IL5 production by oxidized IL33 | Binder
36 | 0.0285 µg/mL | 101% | 77.5% | B1
37 | 0.0337 µg/mL | 101% | 65.4% | B2
38 | 0.0228 µg/mL | 101% | 96.8% | B3
39 | 0.0036 µg/mL | 102% | 614% | B4
